# B1: UGT76G1var17: UGT76G1 variant, mutations F265L_Q266E_Q342K (protein, UniProt Q6VAB4 1-458, looked up, variant F265L Q266E Q342K)
# UDP-glycosyltransferase 76G1: MENKTETTVRRRRRIILFPVPFQGHINPILQLANVLYSKGFSITIFHTNFNKPKTSNYPHFTFRFILDNDPQDERISNLPTHGPLAGMRIPIINEHGADELRRELELLMLASEEDEEVSCLITDALWYFAQSVADSLNLRRLVLMTSSLFNFHAHVSLPQFDELGYLDPDDKTRLEEQASGFPMLKVKDIKSAYSNWQILKEILGKMIKQTKASSGVIWNSFKELEESELETVIREIPAPSFLIPLPKHLTASSSSLLDHDRTVLEWLDQQPPSSVLYVSFGSTSEVDEKDFLEIARGLVDSKQSFLWVVRPGFVKGSTWVEPLPDGFLGERGRIVKWVPQKEVLAHGAIGAFWTHSGWNSTLESVCEGVPMIFSDFGLDQPLNARYMSDVLKVGVYLENGWERGEIANAIRRVMVDEEGEYIRQNARVLKQKADVSLMKGGSSYESLESLVSYISSL
# B2: UGT76G1var21: UGT76G1 variant, mutations A239V_V300A_K303G (protein, UniProt Q6VAB4 1-458, looked up, variant A239V V300A K303G)
# UDP-glycosyltransferase 76G1: MENKTETTVRRRRRIILFPVPFQGHINPILQLANVLYSKGFSITIFHTNFNKPKTSNYPHFTFRFILDNDPQDERISNLPTHGPLAGMRIPIINEHGADELRRELELLMLASEEDEEVSCLITDALWYFAQSVADSLNLRRLVLMTSSLFNFHAHVSLPQFDELGYLDPDDKTRLEEQASGFPMLKVKDIKSAYSNWQILKEILGKMIKQTKASSGVIWNSFKELEESELETVIREIPVPSFLIPLPKHLTASSSSLLDHDRTVFQWLDQQPPSSVLYVSFGSTSEVDEKDFLEIARGLADSGQSFLWVVRPGFVKGSTWVEPLPDGFLGERGRIVKWVPQQEVLAHGAIGAFWTHSGWNSTLESVCEGVPMIFSDFGLDQPLNARYMSDVLKVGVYLENGWERGEIANAIRRVMVDEEGEYIRQNARVLKQKADVSLMKGGSSYESLESLVSYISSL
# B3: UGT76G1var23: UGT76G1 variant, mutations T263S_G348P_A352G (protein, UniProt Q6VAB4 1-458, looked up, variant T263S G348P A352G)
# UDP-glycosyltransferase 76G1: MENKTETTVRRRRRIILFPVPFQGHINPILQLANVLYSKGFSITIFHTNFNKPKTSNYPHFTFRFILDNDPQDERISNLPTHGPLAGMRIPIINEHGADELRRELELLMLASEEDEEVSCLITDALWYFAQSVADSLNLRRLVLMTSSLFNFHAHVSLPQFDELGYLDPDDKTRLEEQASGFPMLKVKDIKSAYSNWQILKEILGKMIKQTKASSGVIWNSFKELEESELETVIREIPAPSFLIPLPKHLTASSSSLLDHDRSVFQWLDQQPPSSVLYVSFGSTSEVDEKDFLEIARGLVDSKQSFLWVVRPGFVKGSTWVEPLPDGFLGERGRIVKWVPQQEVLAHPAIGGFWTHSGWNSTLESVCEGVPMIFSDFGLDQPLNARYMSDVLKVGVYLENGWERGEIANAIRRVMVDEEGEYIRQNARVLKQKADVSLMKGGSSYESLESLVSYISSL
# B4: UGT76G1var24: UGT76G1 variant, mutations A239I_P272A_Q425E (protein, UniProt Q6VAB4 1-458, looked up, variant A239I P272A Q425E)
# UDP-glycosyltransferase 76G1: MENKTETTVRRRRRIILFPVPFQGHINPILQLANVLYSKGFSITIFHTNFNKPKTSNYPHFTFRFILDNDPQDERISNLPTHGPLAGMRIPIINEHGADELRRELELLMLASEEDEEVSCLITDALWYFAQSVADSLNLRRLVLMTSSLFNFHAHVSLPQFDELGYLDPDDKTRLEEQASGFPMLKVKDIKSAYSNWQILKEILGKMIKQTKASSGVIWNSFKELEESELETVIREIPIPSFLIPLPKHLTASSSSLLDHDRTVFQWLDQQAPSSVLYVSFGSTSEVDEKDFLEIARGLVDSKQSFLWVVRPGFVKGSTWVEPLPDGFLGERGRIVKWVPQQEVLAHGAIGAFWTHSGWNSTLESVCEGVPMIFSDFGLDQPLNARYMSDVLKVGVYLENGWERGEIANAIRRVMVDEEGEYIRENARVLKQKADVSLMKGGSSYESLESLVSYISSL
# B5: UGT76G1var22: UGT76G1 variant, mutations E231A_V310I_R334K (protein, UniProt Q6VAB4 1-458, looked up, variant E231A V310I R334K)
# UDP-glycosyltransferase 76G1: MENKTETTVRRRRRIILFPVPFQGHINPILQLANVLYSKGFSITIFHTNFNKPKTSNYPHFTFRFILDNDPQDERISNLPTHGPLAGMRIPIINEHGADELRRELELLMLASEEDEEVSCLITDALWYFAQSVADSLNLRRLVLMTSSLFNFHAHVSLPQFDELGYLDPDDKTRLEEQASGFPMLKVKDIKSAYSNWQILKEILGKMIKQTKASSGVIWNSFKELEESELATVIREIPAPSFLIPLPKHLTASSSSLLDHDRTVFQWLDQQPPSSVLYVSFGSTSEVDEKDFLEIARGLVDSKQSFLWVIRPGFVKGSTWVEPLPDGFLGERGKIVKWVPQQEVLAHGAIGAFWTHSGWNSTLESVCEGVPMIFSDFGLDQPLNARYMSDVLKVGVYLENGWERGEIANAIRRVMVDEEGEYIRQNARVLKQKADVSLMKGGSSYESLESLVSYISSL
# B6: UGT76G1var19: UGT76G1 variant, mutations E224D_E229A_Q432E (protein, UniProt Q6VAB4 1-458, looked up, variant E224D E229A Q432E)
# UDP-glycosyltransferase 76G1: MENKTETTVRRRRRIILFPVPFQGHINPILQLANVLYSKGFSITIFHTNFNKPKTSNYPHFTFRFILDNDPQDERISNLPTHGPLAGMRIPIINEHGADELRRELELLMLASEEDEEVSCLITDALWYFAQSVADSLNLRRLVLMTSSLFNFHAHVSLPQFDELGYLDPDDKTRLEEQASGFPMLKVKDIKSAYSNWQILKEILGKMIKQTKASSGVIWNSFKDLEESALETVIREIPAPSFLIPLPKHLTASSSSLLDHDRTVFQWLDQQPPSSVLYVSFGSTSEVDEKDFLEIARGLVDSKQSFLWVVRPGFVKGSTWVEPLPDGFLGERGRIVKWVPQQEVLAHGAIGAFWTHSGWNSTLESVCEGVPMIFSDFGLDQPLNARYMSDVLKVGVYLENGWERGEIANAIRRVMVDEEGEYIRQNARVLKEKADVSLMKGGSSYESLESLVSYISSL
# B7: UGT76G1var18: UGT76G1 variant, mutations L243P_S274G_N409R (protein, UniProt Q6VAB4 1-458, looked up, variant L243P S274G N409R)
# UDP-glycosyltransferase 76G1: MENKTETTVRRRRRIILFPVPFQGHINPILQLANVLYSKGFSITIFHTNFNKPKTSNYPHFTFRFILDNDPQDERISNLPTHGPLAGMRIPIINEHGADELRRELELLMLASEEDEEVSCLITDALWYFAQSVADSLNLRRLVLMTSSLFNFHAHVSLPQFDELGYLDPDDKTRLEEQASGFPMLKVKDIKSAYSNWQILKEILGKMIKQTKASSGVIWNSFKELEESELETVIREIPAPSFPIPLPKHLTASSSSLLDHDRTVFQWLDQQPPGSVLYVSFGSTSEVDEKDFLEIARGLVDSKQSFLWVVRPGFVKGSTWVEPLPDGFLGERGRIVKWVPQQEVLAHGAIGAFWTHSGWNSTLESVCEGVPMIFSDFGLDQPLNARYMSDVLKVGVYLENGWERGEIARAIRRVMVDEEGEYIRQNARVLKQKADVSLMKGGSSYESLESLVSYISSL
# B8: UGT76G1var20: UGT76G1 variant, mutations S375M_K393G_Y397E (protein, UniProt Q6VAB4 1-458, looked up, variant S375M K393G Y397E)
# UDP-glycosyltransferase 76G1: MENKTETTVRRRRRIILFPVPFQGHINPILQLANVLYSKGFSITIFHTNFNKPKTSNYPHFTFRFILDNDPQDERISNLPTHGPLAGMRIPIINEHGADELRRELELLMLASEEDEEVSCLITDALWYFAQSVADSLNLRRLVLMTSSLFNFHAHVSLPQFDELGYLDPDDKTRLEEQASGFPMLKVKDIKSAYSNWQILKEILGKMIKQTKASSGVIWNSFKELEESELETVIREIPAPSFLIPLPKHLTASSSSLLDHDRTVFQWLDQQPPSSVLYVSFGSTSEVDEKDFLEIARGLVDSKQSFLWVVRPGFVKGSTWVEPLPDGFLGERGRIVKWVPQQEVLAHGAIGAFWTHSGWNSTLESVCEGVPMIFMDFGLDQPLNARYMSDVLGVGVELENGWERGEIANAIRRVMVDEEGEYIRQNARVLKQKADVSLMKGGSSYESLESLVSYISSL
# Assay: Directed evolution of UGT76G1, conversion of Rebaudioside D to Rebaudioside M (round 1)
# Type: biochemical
# Details: 0.5 mM Rebaudioside D, 2.5 mM UDP-Glucose, 100 μL fresh lysate, 30° C., pH 7.2
# From the text: Starting from the amino acid sequence of UGT76G1, as is described in Genbank (AAR06912.1), different mutations at various amino acid positions were identified that could alter the activity of the enzyme for the transformation of Rebaudioside D (Reb D) to Rebaudioside M (Reb M). This list of mutations, designed by DNA2.0 ProteinGPS™ strategy, was subsequently used to synthesize 96 variant genes that contained 3, 4 or 5 of these mutations that were codon-optimized for expression in E. coli. The genes were subcloned in the pET30a+ plasmid and used for transformation of E. coli BL21 (DE3) chemically competent cells. The obtained cells were grown in Petri-dishes on solid LB medium in the presence of Kanamycin. Suitable colonies were selected and allowed to grow in liquid LB medium in tubes. Glycerol was added to the suspension as cryoprotectant and 400 μL aliquots were stored at −20° C. and at −80° C.
# These storage aliquots of E. coli BL21(DE3) containing the pET30a+_UGT76G1var plasmids were thawed and added to LBGKP medium (20 g/L Luria Broth Lennox; 50 mM PIPES buffer pH 7.00; 50 mM Phosphate buffer pH 7.00; 2.5 g/L glucose and 50 mg/L of Kanamycine). This culture was allowed to shake in a 96 microtiter plate at 135 rpm at 30° C. for 8 h.
# 3.95 mL of production medium containing 60 g/L of Overnight Express™ Instant TB medium (Novagen®), 10 g/L of glycerol and 50 mg/L of Kanamycin was inoculated with 50 μL of above described culture. In a 48 deepwell plate the resulting culture was allowed to stir at 20° C. The cultures gave significant growth and a good OD (600 nm; 1 cm) was obtained. After 44 h, the cells were harvested by centrifugation and frozen.
# Lysis was performed by addition of Bugbuster® Master mix (Novagen®) to the thawed cells and the lysate was recovered by centrifugation. Activity tests were performed with 100 μL of fresh lysate that was added to a solution of Rebaudioside D (final concentration 0.5 mM), MgCl2 (final concentration 3 mM) and UDP-Glucose (final concentration 2.5 mM) in 50 mM phosphate buffer pH 7.2.
# The reaction was allowed to run at 30° C. and samples were taken after 2, 4, 7 and 24 h. to determine conversion and initial rate by HPLC (CAD detection) using the analytical method that was described above for the transformation of Rebaudioside D to Rebaudioside M. The results are depicted in the following table.
Molecule,Conversion Reb D to Reb M after 24 h (%),initial rate (Reb M area/min)
B1,0.7,7.2E+05
B2,41.9,3.3E+07
B3,47.8,4.1E+07
B4,31.0,2.1E+07
B5,34.4,2.4E+07
B6,10.5,5.5E+06
B7,1.9,5.0E+05
B8,1.8,1.9E+06
